# Experimental data: PMC7797213, “Vascular effects of serelaxin in patients with stable coronary artery disease: a randomized placebo-controlled trial” (Cardiovascular Research, 2020)
# Legend:
# Assay type in all cases: in vivo, human
# [1] = system: NT-proBNP; experiment: Plasma biomarker NT-proBNP; conditions: for NT-proBNP, geo-mean (95% CI): plasma
# Description: (§1) Biomarkers reported include: N-terminal pro-brain natriuretic peptide (NT-proBNP), high-sensitivity troponin T (hsTnT) measured to assess myocardial safety; cystatin C measured to access renal function; the biologically active form of endothelin-1 (1–21), measured to assess vascular function. Venous blood samples were collected at 0 (pre-dose), 24, 48, and 54 h, Day 30, and Day 180. NT-proBNP, hsTnT, and cystatin C samples were collected in EDTA tubes while endothelin-1 samples were collected in EDTA tubes containing aprotinin. Plasma was immediately frozen at −70°C pending analysis in complete patient sets. Commercial biomarker kits were as follows: hsTnT from Roche Diagnostics GmbH, Germany; cystatin C from Gentian, Moss, Norway; and active endothelin-1 […] from Biomedica Medizinprodukte, Vienna, Austria.
# (§2) For the biomarker analyses, baseline was defined as the pre-dose assessment on Day 1. Raw values as well as changes from baseline were summarized by treatment and time. Descriptive statistics included geometric mean and 95% CI. For geometric means of change from baseline, a ratio to baseline was used to determine percentage change by first calculating in the log domain and then back transforming using exponentiation.
# (§3) Baseline corresponds to the value at day 1 pre-dose. For change from baseline, geometric mean and its CI are calculated for the value (post) to baseline ratio.
# [2] = Immunogenicity: serum anti-serelaxin antibodies; conditions: Day 1 (baseline) and Day 30, all patients
# Description: Blood was collected on Day 1 (baseline) and post-dose on Day 30 for assessment of immunogenicity. Serum anti-serelaxin antibody concentrations were evaluated using a validated four-tiered assay approach for antibody screening, confirmation, titration, and neutralizing antibody detection, when applicable.
# [3] = system: hsTnT; experiment: Plasma biomarker high-sensitivity troponin T; set-up: hs Troponin-T, geo-mean (95% CI): unit not given here
# Description: as §1, §2, §3
# [4] = system: patients with stable coronary artery disease; experiment: Adverse events and serious adverse events
# Description: All adverse events (AEs) were recorded along with investigator-reported seriousness, intensity, and relationship to study drug.
substance,measurement,setting,value
Serelaxin,"NT-proBNP change from baseline, geometric mean ratio to baseline (95% CI)","[1]; 24 h, n=27","0.89 (0.77, 1.02)"
same,"NT-proBNP change from baseline, geometric mean ratio to baseline (95% CI)","[1]; 48 h, n=28","1.03 (0.79, 1.34)"
same,"NT-proBNP change from baseline, geometric mean ratio to baseline (95% CI)","[1]; 54 h, n=27","1.36 (1.06, 1.75)"
same,"NT-proBNP change from baseline, geometric mean ratio to baseline (95% CI)","[1]; Day 30, n=29","1.02 (0.80, 1.29)"
same,"NT-proBNP change from baseline, geometric mean ratio to baseline (95% CI)","[1]; Day 180, n=29","1.17 (0.86, 1.58)"
same,"NT-proBNP, geo-mean (95% CI)","[1]; 0 h (pre-dose baseline), n=29","87.0 (60.2, 125.8) pg/mL"
same,"NT-proBNP, geo-mean (95% CI)","[1]; 24 h, n=27","74.7 (51.9, 107.5) pg/mL"
same,"NT-proBNP, geo-mean (95% CI)","[1]; 48 h, n=28","86.8 (57.7, 130.5) pg/mL"
same,"NT-proBNP, geo-mean (95% CI)","[1]; 54 h, n=27","117.1 (79.9, 171.7) pg/mL"
same,"NT-proBNP, geo-mean (95% CI)","[1]; Day 30, n=29","88.4 (60.3, 129.7) pg/mL"
same,"NT-proBNP, geo-mean (95% CI)","[1]; Day 180, n=29","101.6 (69.9, 147.8) pg/mL"
same,Anti-serelaxin antibody status,[2],anti-serelaxin antibody negative
same,"hs Troponin-T change from baseline, geometric mean ratio to baseline (95% CI)","[3]; 24 h, n=27","0.90 (0.80, 1.01)"
same,"hs Troponin-T change from baseline, geometric mean ratio to baseline (95% CI)","[3]; 48 h, n=28","0.87 (0.79, 0.95)"
same,"hs Troponin-T change from baseline, geometric mean ratio to baseline (95% CI)","[3]; 54 h, n=27","1.02 (0.85, 1.24)"
same,"hs Troponin-T change from baseline, geometric mean ratio to baseline (95% CI)","[3]; Day 30, n=29","0.89 (0.78, 1.02)"
same,"hs Troponin-T change from baseline, geometric mean ratio to baseline (95% CI)","[3]; Day 180, n=29","1.09 (0.91, 1.31)"
same,"hs Troponin-T, geo-mean (95% CI)","[3]; plasma, 0 h (pre-dose baseline), n=29","0.0076 (0.0057, 0.0102)"
same,"hs Troponin-T, geo-mean (95% CI)","[3]; plasma, 24 h, n=27","0.0064 (0.0049, 0.0084)"
same,"hs Troponin-T, geo-mean (95% CI)","[3]; plasma, 48 h, n=28","0.0066 (0.0049, 0.0089)"
same,"hs Troponin-T, geo-mean (95% CI)","[3]; plasma, 54 h, n=27","0.0079 (0.0057, 0.0110)"
same,"hs Troponin-T, geo-mean (95% CI)","[3]; plasma, Day 30, n=29","0.0068 (0.0053, 0.0088)"
same,"hs Troponin-T, geo-mean (95% CI)","[3]; plasma, Day 180, n=29","0.0083 (0.0066, 0.0105)"
same,hsTnT geometric mean at baseline,"[3]; plasma, pre-dose baseline, serelaxin group",7.6 ng/L
same,Patients discontinuing the study due to hypotensive events,[4]; in vivo,No patient
same,AEs considered causally related to serelaxin,[4]; investigator-reported relationship,None
same,Angina pectoris (AE by preferred term),[4]; safety set n=30,1 (3) n (%)
same,Angina unstable (AE by preferred term),[4]; safety set n=30,1 (3) n (%)
same,Blood creatinine increased (AE by preferred term),[4]; safety set n=30,1 (3) n (%)
same,Dizziness (AE by preferred term),[4]; safety set n=30,2 (7) n (%)
same,Dyspnoea (AE by preferred term),[4]; safety set n=30,2 (7) n (%)
same,Haematocrit decreased (AE by preferred term),[4]; safety set n=30,1 (3) n (%)
same,Haemoglobin decreased (AE by preferred term),[4]; safety set n=30,2 (7) n (%)
same,Headache (AE by preferred term),[4]; safety set n=30,2 (7) n (%)
same,Musculoskeletal pain (AE by preferred term),[4]; safety set n=30,2 (7) n (%)
same,Presyncope (AE by preferred term),[4]; safety set n=30,0 (0) n (%)
same,Subjects with at least one AE,"[4]; safety set n=30, 48 h IV infusion 30 µg/kg/day, follow-up to Day 180",17 (57) n (%)
same,Deaths,[4]; study period to Day 180,No deaths
